# Experimental data taken from the nanobody polyreactivity screen of Harvey et al. (2022).
# Experiment: yeast display, Sf9 membrane polyspecificity reagent, FACS + sequencing; frameworks hold sequencing errors
# Method in brief: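 A synthetic nanobody library was expressed on Saccharomyces cerevisiae BJ5465 by galactose induction for 36–48 hours. The library was stained for 1 hour at 4 °C with 10% biotinylated, detergent-solubilized Sf9 membrane reagent and enriched with streptavidin microbeads before FACS. Low and high (top ~1%) gates were set on anti-HA fluorescence for expression and streptavidin fluorescence for reagent binding, and each polyreactivity label reflects the gate of origin.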
row,Sequence,polyreactivity (PSR sort gate)
1,QVQLVESGGGLVQAGGSLRLSCAASGSIFYPYAMGWYRQAPGKERELVAAISWSGTRTYYADSVKGRFTISRDNAKNTVYLQMNSLKPEDTAVYYCAAYLPGYREQVDTNSWGQGTQVTVSS,low polyreactivity
2,QVQLVESGGGLVQAGGSLRLSCAASGSIFYQNARGWYRQAPGKERELVAAISISDGSTYYADSVNGRFTISRDNAKNTVYLQMNILKPEDTAVYYCNADSLYYDPYDYWGQGTQVTVSS,low polyreactivity
3,QVQLVESGGGLVQAGGSLRLSCAASGSIFYQYAMGWYRQAPGKERELVAAISVRAGITYYADSVKGRFTISRDNAKNTVYLQMNSLKPEETAVYYGAKDHWTTSYDEGDYWGQGTQVTVSS,low polyreactivity
4,QVQLVESGGGLVQAGGSLRLSCAASGSIFYRNAMGCSRQARGKERELVAAISSSGTRTYYADSVKGRFTISRDNAKNTVYLQMNILKPEDTAVYYCAAGVVLWYRRRYYYWGQGTQVTVSS,high polyreactivity
5,QVQLVESGGGLVQAGGSLRLSCAASGSIFYRNAMGWYRQAPGKERELVAAISWSGASTSYADSVKGRFTISPDNAKNTVYLQMNSLIPDATAVYYCNAGKYAYLWLKLFAPKLDYWGQGTQVTVSS,low polyreactivity
6,QVQLVESGGGLVQAGGSLRLSCAASGSIFYRNAMGWYRQATGKERELVAAISASGGSTYYADSVKGRFTISRDNAKNTVYLQINSLKPEDTAVYYCAVEYRKSRSYYPYYYWGQGTQVTVSS,high polyreactivity
7,QVQLVESGGGLVQAGGSLRLSCAASGSIFYRNDMGWYRQAPGKERELVAAITWSGVNTYYADSVKGRFTISRDNAKNTVYLQMNSLKPEDTAVYYCAVPSRYWLNRGFDYWGQGTQVTVSS,low polyreactivity
8,QVQLVESGGGLVQAGGSLRLSCAASGSIFYRNVMGWYRQAPGKERELVASINFSGGSTYYADCVKGRFTISRDNAKNTVYLQMNSLKPEDTAVYYCAARTVHIYTRMYYWGQGTQVTVSS,high polyreactivity
9,QVQLVESGGGLVQAGGSLRLSCAASGSIFYRNVMGWYRQAPGKERELVATISRGGTSNYADSVKGRFTISRDNAKNTVYLQMNSLKPEDTAVYYCAAPIGDVYVGKGYDSWGQGTQVTVSS,low polyreactivity
10,QVQLVESGGGLVQAGGSLRLSCAASGSIFYRYAIGWYRHPPGKERELVAAITRGGTTYYADSVKGRFTISRDNAKNTVYLQMNSLKPEDSAVYYCAARLRYTTVIYYYWGQGTQVTVSS,high polyreactivity
11,QVQLVESGGGLVQAGGSLRLSCAASGSIFYRYAMGWNRQAPGKERELVATITQSGVSTYYADSEKGRFTISRDNAKNTVYLQMNSLKPEDTAVYYCAASYYYTIGPYFRKFDWGQGTQVTVSS,low polyreactivity
12,QVQLVESGGGLVQAGGSLRLSCAASGSIFYRYAMGWSRQAPGKERELVAAISSGSSTHYADSVKGRFTMSRDNAKNTVYLQMNSLKPEDTAVYYCAARYRAYTSTRRFDYWGQGTQVTVSS,high polyreactivity
13,QVQLVESGGGLVQAGGSLRLSCAASGSIFYRYAMGWYRQAPGKERELVAAIRWSGGSTYYADSVKGRFTISRDNAKNTVYLQMNSQKPEDTAVYYCATEVSYGGYWSWYGYWGQGTQVTVSS,low polyreactivity
14,QVQLVESGGGLVQAGGSLRLSCAASGSIFYRYAMGWYRQAPGKERELVAGISWTGGTYYADSVKGRFTISRDNAKNTVYLQMNSLKPEDTAVYYCAATIWIAYRGWYSDYNYWGQGTQVTVSS,low polyreactivity
15,QVQLVESGGGLVQAGGSLRLSCAASGSIFYRYAMGWYRQAPGKEWELVAAISYSGGSTYYADSVKGRFPISRDNAKNTVYVQMNSLKPEDTAVNYCATDYPPPISDYSRYYGYGYWGQGTQVTVSS,low polyreactivity
16,QVQLVESGGGLVQAGGSLRLSCAASGSIFYSNAMGWYRQAPGKEREFVAAISAGGGSTYYADSVKGRFTISRDNAKNTVYLQMNSLKPEDTAVYYCAAQPYKIIYPYDYWGQGTQVTVSS,low polyreactivity
17,QVQLVESGGGLVQAGGSLRLSCAASGSIFYSNAMGWYRQAPGKERELVAAIRTSAGSTYYADSVKGRFTISRDYAKNTVYLQMTSLKPEDTAVYYCAAVTTYYYYDVTDYAYEYYYWGQGTQVTVSS,low polyreactivity
18,QVQLVESGGGLVQAGGSLRLSCAASGSIFYSNAMGWYRQAPGKERELVAAISDGGTSTYYADSVKGRFTISRDNAKNTVYFQMNSLKPEDTAVYYCAAESTLQDWNWYKYYYWGQGTQVTVSS,low polyreactivity
19,QVQLVESGGGLVQAGGSLRLSCAASGSIFYSNAMGWYRQAPGKERELVAAISDGGTSTYYADSVKGRFTISRDNAKNTVYLQMNSLKPEDTAVYYCAAESTLQDWNWYKYYYWGQGTQVTVSS,low polyreactivity
20,QVQLVESGGGLVQAGGSLRLSCAASGSIFYSNVMGWYRQAPGKERELVAAIRYSGVGTYYADSVKGRFTISRDNAKNTVYLLMNSLKPEDTAVYYCNAVTKVGYLRRRDYWGQGTKVTVSS,low polyreactivity
21,QVQLVESGGGLVQAGGSLRLSCAASGSIFYSYAMGWYRQAPGKDRELVARITSSTGRTYYADSVKGRFTISRDNAKNTVYLQMNSLKPEDTAVYYCAARSASRSMDYWGQGTQVTVSS,high polyreactivity
22,QVQLVESGGGLVQAGGSLRLSCAASGSIFYSYAMGWYRQAPGKERELVAAISWDASTYYADSVKGRFTISRDNAKNTVYLQMNSLKPEDTAVYFCNADIPYYFVYDAYDYWGQGTQVTVSS,low polyreactivity

row,Sequence,polyreactivity (PSR sort gate)
1,QVQLVESGGGLVQAGGSLRLSCAASGSIFYSYAMGWYRQAPGKERELVAAISYSSGSTYYADSVKGRFTISRDNAKNTVYLQMNSLKPEDTAVYDCAAEGNGWQVDVTEVGEYDSWGQGTQVTVSS,high polyreactivity
2,QVQLVESGGGLVQAGGSLRLSCAASGSIFYSYAMGWYRQAPGKERELVADITITGSTYYADSVKGRFTISRDNAKNTVYLQMNSLKPEDTAVYYCDAVLAPGGYDYWGQGTQVTVSS,low polyreactivity
3,QVQLVESGGGLVQAGGSLRLSCAASGSIFYSYAMGWYRQAPGKERELVAVITRGGSTNYADSVKGRFTISRDNAKNTVYLQMNSLKPEDTAVYYCNKDRYGKVFRYPPYYRSSPYDYWGQGTQVTVSS,high polyreactivity
4,QVQLVESGGGLVQAGGSLRLSCAASGSIFYTNAMGWDRQAPGKERELVATITSSTGSTNYADSVKGRFTISRDNAKNTVYLQMNSLKPEDTAVYYCAKRDGYWVYYQMDYWGQGTQVTVSS,low polyreactivity
5,QVQLVESGGGLVQAGGSLRLSCAASGSIFYTNVRGWYRQAPGKAREFVAAITGGGGSTYYADSVKGRFTISRDNAKNTVYLQMNSLKPEDTAVYYCATKAKPRSGYNYWGQGTQVTVSS,low polyreactivity
6,QVQLVESGGGLVQAGGSLRLSCAASGSIFYTYAKGWYRQAPGKQRELVAGISWSGSDTYYADSVKGRFTISRDNAKNTVYLQMNSLKPEDTAVYYCNAETSTRKNFGYDYWGQGTQVTVSS,low polyreactivity
7,QVQLVESGGGLVQAGGSLRLSCAASGSIFYTYAMGWSRQAPGKEREFVAAITSSGGSTYYADSVKGRFTISRDNAKNTVYLQMNSLKPEDTAVYYCAADSGSTSEYEYWGQGTQVTVSS,low polyreactivity
8,QVQLVESGGGLVQAGGSLRLSCAASGSIFYTYAMGWYRQAPGKEREFVASITYRGSNTYYADSVKGRFTISRDNAKNTVYLQMNSLKPEDTAVYYCAADSFYYRPEYDYWGQGTKVTVSS,low polyreactivity
9,QVQLVESGGGLVQAGGSLRLSCAASGSIFYTYAMGWYRQAPGKERELVATIRVSGVSTYADSVKGRFTISRDNAKNTVYLQMNSLKPEDTAVYYCNKVSFYEPIYWQQGYVLLDYWGQGTQVTVSS,low polyreactivity
10,QVQLVESGGGLVQAGGSLRLSCAASGSIFYVNTMGWYRQAPGKERELVAAISDSSGGTYYADSVKGRFTISRDNAKNTVYLQMNSLKPEDPAVYYCARDSTSHYDSGPYSSPFDYWGQGTQVTVSS,low polyreactivity
11,QVQLVESGGGLVQAGGSLRLSCAASGSIFYVYAMGGYRQAPGKERELVAAISKSGGSTYYADSVKGRFTISRDNAKNTVYLQMNRLKPEDTAVYYCAAYFSYGSIIEDYWGQGTQVTVSS,low polyreactivity
12,QVQLVESGGGLVQAGGSLRLSCAASGSIFYVYAMGWYRQAPGKERELDAGITTSGGSTYYADSVKGRFTISRDNAKNTVYLQMKSLKPEDTAVYYCATRNAFTAGSYNVYYGEYYWGQGTQVTVSS,low polyreactivity
13,QVQLVESGGGLVQAGGSLRLSCAASGSIFYVYAMGWYRQAPGKERELVAAISFSGDTTYYADSVKGRFTISRDNAKNTVYLQMNSLKQEDTAVYYCAAEYYYTWVYQYWEMDYWGQGTQVTVSS,low polyreactivity
14,QVQLVESGGGLVQAGGSLRLSCAASGSIFYVYAMGWYRQAPGKERELVAAITNYADSVKGRFTISRDNAKNTVYLQMNSLKPEDTAVYYCAADWWRVEMDYWGQGTQVTVSS,low polyreactivity
15,QVQLVESGGGLVQAGGSLRLSCAASGSIFYVYAMGWYRQAPGKERELVASISWGDSSTYYADSVKGRFTISRDNAKNTVYLQMNSLKPDDTAVYYCAADEYRQYALYDYWGQGTQVTVSS,low polyreactivity
16,QVQLVESGGGLVQAGGSLRLSCAASGSIFYVYAMGWYRQAPGKERELVATISSSAGSTYYADSVKGRFTISRDNAKNTVYLQMNSLKPEDTAVYYCAVRQIYQTSDHRLQYDYWGQGTQVTVSS,low polyreactivity
17,QVQLVESGGGLVQAGGSLRLSCAASGSIFYVYAMGWYRQAPGNERELVADITTRDGDTYYADSVKGRFTISRDNAKNTVYFQMNSLKPEDTAVYYCAADLNAYPQRAYDYWGQGTQVTVSS,low polyreactivity
18,QVQLVESGGGLVQAGGSLRLSCAASGSIFYWYAMGWYRQAPGKERELVAAIDISDDTYYADSVKGRFTISRDNAKNTVYLQMNSLKPEDTAVYYCAARTTRWFYEYDWGQGTQVTVSS,high polyreactivity
19,QVQLVESGGGLVQAGGSLRLSCAASGSIFYYNAMGWYRQAPGKERELVAAISFRASSTYYADSVKGRFTISRDNAKNTVYLQMNSLKPEDTAVYYCASSHWHYIPRHHPYGDDYCGQGTQVTVSS,low polyreactivity
20,QVQLVESGGGLVQAGGSLRLSCAASGSIFYYNAMGWYRQAPGKERELVAAISWSGGSTYYADSVKGRFTISRDKAKNTVYLQMNSLKPEDTAVYYCNAVGWYTYFYGSRKYNSWGQGTQVTVSS,low polyreactivity
21,QVQLVESGGGLVQAGGSLRLSCAASGSIFYYNAMGWYRQEPGKERELVATITSAVSTNYADSVKGRFTISRDNAKNTVYLQMNSLKPQDTAVYYCAADDYQVQYDYWGQGTQVTVSS,low polyreactivity
